Assay [1] has as its target T1, human CD38 on tumor cells (human, UniProt P28907 1-300).
T1 construct: whole, on cells; Endogenous CD38 of the cell lines; also called CD38 on Raji-CD47KO cells
Description: flow cytometry on Raji-CD47KO cells. On the technique in general: A flow cytometer gives signals particle by particle.

The target in another assay is T2, human CD47 on cells (human, UniProt Q08722 19-323).
T2 construct: whole, on cells; Endogenous CD47 of the cells; also called CD47 on Daudi cells; CD47 on RBCs
Kind of assay: flow cytometry on human red blood cells.

B1: BEAT CD38/CD47-60 (bispecific antibody, human IgG1, kappa)
heavy 1: EVQLVESGGGLIQPGGSLRLSCAASGFTLSRNTMHWVRQAPGKGLEWVSVIYQSGVTRYADSVKSRFTISRDNSKNTLYLQMNSLRAEDTAVYYCARGRYGVAGGPGYAFDVWGQGTLVTVSSASTKGPSVFPLAPSSKSTSGGTAALGCLVKDYFPEPVTVSWNSGALTSGVHTFPAVLQSSGLYSLSSVVTVPSSSLGTQTYICNVNHKPSNTKVDKKVEPKSCDKTHTCPPCPAPELLGGPDVFLFPPKPKDTLMISRTPEVTCVVVDVSHEDPEVKFNWYVDGVEVHNAKTKPREEQYNSTYRVVSVLTVLHQDWLNGKEYKCKVNNKALPAPEEKTISKAKGQPREPAVYTLPPSREEMTKNQVKLVCLVTGFYPSDIAVEWESSGQPENNYYTTPPMLDSDGSFSLVSWLNVDKSRWQQGNIFSCSVMHEALHNRFTQKSLSLSPG
heavy 2: not shown
light: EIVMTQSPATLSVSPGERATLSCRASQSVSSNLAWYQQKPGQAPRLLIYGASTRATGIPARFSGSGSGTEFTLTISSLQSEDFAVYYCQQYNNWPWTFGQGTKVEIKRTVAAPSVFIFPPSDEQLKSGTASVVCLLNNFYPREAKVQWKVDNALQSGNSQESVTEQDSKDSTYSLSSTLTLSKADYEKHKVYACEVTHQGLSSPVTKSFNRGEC
notes: 2+1 biparatopic BEAT: anti-CD47-H2 arm on BEAT (A); BEAT (B) carries Fc distal anti-CD38-B6-D9 and Fc proximal anti-CD38-E2-RecA Fabs; BEAT (A): S239D + I332E + S324N, BEAT (B): S324N; also called BEAT CD38/47-60; BEAT 38/47-60
As to B1, the binding result (in assay [1]; with human CD47 on cells) was “binds” throughout.

For the origin of these results see patent publication US20240141062A1 (published 2024).
